# Measurements: US20240076389A1 (NATIONAL RESEARCH COUNCIL OF CANADA, published 2024)
# T1: rhMER-ECD (human, UniProt Q12866 21-505)
# T1 construct: extracellular domain
# T1 sequence (looked up): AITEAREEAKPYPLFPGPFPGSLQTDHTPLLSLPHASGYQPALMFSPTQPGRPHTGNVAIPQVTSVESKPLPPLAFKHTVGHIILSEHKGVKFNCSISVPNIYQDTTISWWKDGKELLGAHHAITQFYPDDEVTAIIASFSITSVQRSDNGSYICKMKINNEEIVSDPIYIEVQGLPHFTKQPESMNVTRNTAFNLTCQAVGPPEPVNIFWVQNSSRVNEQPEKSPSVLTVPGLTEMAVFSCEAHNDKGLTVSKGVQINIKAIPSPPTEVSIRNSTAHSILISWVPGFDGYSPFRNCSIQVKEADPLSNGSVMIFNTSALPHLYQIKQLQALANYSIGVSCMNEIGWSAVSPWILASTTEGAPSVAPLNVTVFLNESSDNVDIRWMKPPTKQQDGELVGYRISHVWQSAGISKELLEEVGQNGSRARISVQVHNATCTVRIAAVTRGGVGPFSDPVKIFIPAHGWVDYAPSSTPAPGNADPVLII
# T2: rhTyro-3 (human, UniProt Q06418 41-429)
# T2 construct: extracellular domain
# T2 sequence (looked up): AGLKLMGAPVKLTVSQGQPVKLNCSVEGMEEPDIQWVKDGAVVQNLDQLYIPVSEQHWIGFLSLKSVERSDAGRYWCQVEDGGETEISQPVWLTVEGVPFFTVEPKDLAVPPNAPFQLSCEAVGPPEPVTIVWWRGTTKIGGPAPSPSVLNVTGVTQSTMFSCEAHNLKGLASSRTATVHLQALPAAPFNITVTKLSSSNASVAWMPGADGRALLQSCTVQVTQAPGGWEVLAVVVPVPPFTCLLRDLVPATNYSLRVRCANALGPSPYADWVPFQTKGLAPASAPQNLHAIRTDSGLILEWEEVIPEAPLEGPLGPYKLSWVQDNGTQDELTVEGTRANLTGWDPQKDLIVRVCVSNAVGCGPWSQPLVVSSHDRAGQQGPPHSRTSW
# T3: human AXL expressed on the cell surface of tumor cell lines (human, UniProt P30530 26-894)
# T3 construct: whole, on cells; also called cell surface-expressed AXL; cell-based AXL
# T3 sequence (looked up): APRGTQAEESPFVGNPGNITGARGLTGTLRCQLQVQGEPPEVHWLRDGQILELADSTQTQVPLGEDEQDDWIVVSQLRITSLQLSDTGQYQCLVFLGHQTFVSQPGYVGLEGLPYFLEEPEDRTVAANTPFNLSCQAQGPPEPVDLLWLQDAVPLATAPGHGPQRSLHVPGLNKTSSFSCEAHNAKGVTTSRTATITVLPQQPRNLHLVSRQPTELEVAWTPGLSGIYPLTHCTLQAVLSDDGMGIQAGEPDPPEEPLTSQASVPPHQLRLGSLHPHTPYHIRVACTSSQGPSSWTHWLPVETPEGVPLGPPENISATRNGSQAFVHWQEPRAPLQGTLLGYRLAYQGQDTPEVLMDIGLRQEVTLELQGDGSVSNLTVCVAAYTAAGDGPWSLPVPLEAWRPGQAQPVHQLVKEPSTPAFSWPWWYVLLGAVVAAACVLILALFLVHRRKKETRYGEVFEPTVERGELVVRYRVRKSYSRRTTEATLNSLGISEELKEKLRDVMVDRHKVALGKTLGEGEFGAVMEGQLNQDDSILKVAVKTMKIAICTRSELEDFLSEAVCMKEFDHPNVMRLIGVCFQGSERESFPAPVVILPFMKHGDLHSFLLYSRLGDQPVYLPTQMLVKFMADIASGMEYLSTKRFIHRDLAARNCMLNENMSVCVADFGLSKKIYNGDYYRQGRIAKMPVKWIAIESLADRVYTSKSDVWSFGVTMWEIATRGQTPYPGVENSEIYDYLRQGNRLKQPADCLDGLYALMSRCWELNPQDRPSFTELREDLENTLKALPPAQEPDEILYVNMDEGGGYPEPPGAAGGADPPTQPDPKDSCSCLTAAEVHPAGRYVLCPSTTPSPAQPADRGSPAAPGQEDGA
# Key:
# rhMER-ECD = molecular target: T1, rhMER-ECD; assay: ELISA on coated antigen
# Protocol: (§1) To evaluate the cross-reactivity of the mAb to other members of the TAM receptor tyrosine kinase subfamily, binding of the mAb to rhAXL-ECD, rhMER-ECD, rhTyro-3 and BSA (negative control) was measured by ELISA. 96-w half-area plates (Costar) were coated with 25 μl of rhAXL-ECD, rhMER-ECD, rhTyro-3 or BSA at 5 μg/ml in PBS and incubated overnight at 4° C. Microplates were washed 3 times with PBS, blocked with PBS-BSA 1%, and 25 μl of a 10 μg/ml diluted in PBS-BSA 1% were added and incubated at 37° C., 5% CO₂ for 2 hours. Plates were washed 4 times with PBS-TWEEN™ 20 0.05% and incubated for one hour at 37° C., 5% CO₂ with 25 μl of secondary antibody alkaline phosphatase conjugated F(ab)′2 goat anti-mouse IgG (H+L) (Jackson Immunoresearch) diluted 1/5000 in blocking buffer. After 4 washes with PBS-Tween 20 0.05%, 25 μl of a 1 mg/ml pN PP substrate solution was added and further incubated for one hour at 37° C. OD405 nm measurements were done using a microplate reader (Spectramax 340 PC, Molecular Devices).
# BSA = molecular target: T4, BSA (UniProt P02769 25-607); assay: ELISA on coated antigen
# T4 construct: also called BSA (negative control)
# T4 sequence (P02769 25-607 limits assumed): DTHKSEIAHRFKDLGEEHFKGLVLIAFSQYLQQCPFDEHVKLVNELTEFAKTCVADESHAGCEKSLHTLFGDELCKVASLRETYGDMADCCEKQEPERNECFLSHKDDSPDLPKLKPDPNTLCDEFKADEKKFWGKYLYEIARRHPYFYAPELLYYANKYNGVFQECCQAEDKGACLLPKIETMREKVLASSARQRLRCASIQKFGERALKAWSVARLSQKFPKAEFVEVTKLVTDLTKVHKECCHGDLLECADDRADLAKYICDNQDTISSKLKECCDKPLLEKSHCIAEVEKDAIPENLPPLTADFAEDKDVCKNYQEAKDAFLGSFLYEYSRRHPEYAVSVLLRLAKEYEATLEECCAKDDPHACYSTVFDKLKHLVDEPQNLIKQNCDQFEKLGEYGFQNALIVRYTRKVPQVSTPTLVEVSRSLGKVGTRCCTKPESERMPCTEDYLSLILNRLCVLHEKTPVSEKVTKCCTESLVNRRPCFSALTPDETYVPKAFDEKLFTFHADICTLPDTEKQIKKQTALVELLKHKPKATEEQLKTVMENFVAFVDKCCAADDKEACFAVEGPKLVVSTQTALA
# Protocol: as §1
# rhTyro-3 = molecular target: T2, rhTyro-3; assay: ELISA on coated antigen
# Protocol: as §1
# [1] = molecular target: T3, human AXL expressed on the cell surface …; assay: flow cytometry on H292 cells, one site-specific binding with Hill slope
# Protocol: Detection of antibody binding to surface AXL by flow cytometry. Prior to analysis, cells were plated such that they were not more than 80% confluent on the day of analysis. Cells were washed in PBS and harvested by the addition of cell dissociation buffer (Sigma). A cell suspension containing 2.5×10⁵ cells (in 500 μl corresponding cell culture media) was incubated with various concentrations (0.01-10 nM) of anti-AXL antibodies for 2 h at 4° C. (to prevent internalization). Following one wash with cell culture media, primary antibody was incubated with 2 μg DYLIGHT™ 488 conjugated AffiniPure goat anti-mouse IgG Alexa 488 secondary antibody (Jackson ImmunoResearch) in 100 μl of media for 1 h at 4° C. Prior to analysis, cell pellets were re-suspended in 300-500 μl media and filtered through a 50 μm nylon mesh filter to remove cell aggregates. Flow cytometry analyses were performed on 10,000 viable cells gated on forward scattering, side scattering parameters and propidium iodide dye exclusion using a BD LSRII flow Cytometer (Becton-Dickinson Biosciences, CA, USA) and a standard filter set using BD FACSDiva™ acquisition software, according to manufacturer's instructions.
# Specific detection of antibody binding was calculated as the mean fluorescent intensity of binding to each primary antibody after background level subtraction of the mean fluorescent intensity of binding in the absence of primary antibody (but containing detection antibody). Binding parameters Bmax, (maximum fluorescence signal at receptor saturation), and KD (apparent cell binding constant) were then determined using a One site—Specific binding with Hill slope model in GraphPad Prism v 6.0.
Binder,binding result (rhMER-ECD),binding result (BSA),binding result (rhTyro-3),Bmax [1] [MFI]
"F111-3C8 (antibody, V domains shown, also called F111-3C8-2) VH: QVQLQQPGAELGKPGTSVKLSCKASGYTFTSYWMHWVKRVPGQGLEWIGNINPNSTSADYNEKFKRKATLTVDKSSSTAYMQLSTLTSEDSAVYYCTRPLMGPYWYFDVWGTGTTVTVSS VL: QIVLTQSPAIMSASPGEKVTISCSASSSVSYMYWYQQKPGSSPKPWIYRTSNLASGVPARFSGSGSGTSYSLTISSMEAEDAATYYCQQYHNYPPTFGGGTKLEIK",no binding (tested: 10 µg/ml),no binding (tested: 10 µg/ml),no binding (tested: 10 µg/ml),1480
"F107-8D12 (antibody, V domains shown, also called F107-8D12-2; mAb 8D12) VH: QVQLQQPGAELVKPGASVQLSCKASGYTFISFWINWVKQRPGQGLEWMGNIFPGSSSTNYNEKFKSKATLTVDKSSSTAYMQLSSLTSEDSAVYFCARDYYGGSPDYWGQGTTLTVSS VL: DIVMSQSPSSLAVSAGERVTMSCKSSQSLLNTRTRKNYLAWYQQKPGQSPKLLIYWASTRESGVPDRFTGSGSGTDFTLTISSVQAEDLAVYYCKQSYNLWTFGGGTKLEIK",no binding (tested: 10 µg/ml),no binding (tested: 10 µg/ml),no binding (tested: 10 µg/ml),1310
"F107-7H5 (antibody, V domains shown, also called F107-7H5-2; mAb 7H5) VH: QVQLQQPGAELVKPGASVKLSCKASGYTFTSYWINWVKQRPGQGLEWIGNIYPDSSSTNYNEKFKSKATLTVDKSSTTAYIQFSSLTSEDSAVYYCTRDTYGGSPDYWGQGTTLTVSS VL: DIVMSQSPSSLAVSAGEKVTMSCKSSQSLLNSRTRKIYLAWYQQKPGQSPKLLIYWASTRQSGVPDRFTGSGSGTDFTLTISSVQAEDLAVYYCKQSYNLWTFGGGTKLEIK",no binding (tested: 10 µg/ml),no binding (tested: 10 µg/ml),no binding (tested: 10 µg/ml),1430
"F107-10G1 (antibody, V domains shown, also called F107-10G1-3) VH: EVNLVESGGGVVKPGASLKLSCEASGFTFSNYGMSWVRQTSDKRLEWVASISGGGGRTYYLDNVKGRFIISRENAKNTLYLQMSSLKSEDTALFYCARGARASYFAMDYWGQGSSVTVSS VL: VIVMTQSHKFMSTSVGDRVSITCKASQDVTTAVAWYQQKPGQSPKLLIYWASTRHTGVPDRFTGSGSGTDYSLTISNVQTEDLAFYYCQQHFTTPLTFGAGTKLELK",no binding (tested: 10 µg/ml),no binding (tested: 10 µg/ml),no binding (tested: 10 µg/ml),937
"F111-5E9 (antibody, V domains shown, also called F111-5E9-2; mAb 5E9) VH: QIQLVQSGPELKKPGETVKISCKASGYTFTKYGMNWVKQAPGKGLKWMGWINTYTGEPTYADDFKGRFAFSLETSASTAYLQINNLTTEDMVTYFCAKGGYYSNPIYPMDYWGQGTSVTVSS VL: DIQMTQTTSSLSASLGDRVTISCRASQDINNYLNWYQQKPDGTVKLLIYYISRLHSGVPSRFSGSGSGTDYSLTISNLELEDVATYFCQQGNTLPFTFGSGTKLEIK",no binding (tested: 10 µg/ml),no binding (tested: 10 µg/ml),no binding (tested: 10 µg/ml),1150
